Test results taken from PMC11073571, “Functional and in silico analysis of ATP8A2 and other P4-ATPase variants associated with human genetic diseases” (Disease Models & Mechanisms, 2024).

B1: ATP8A2-CDC50A complex (Homo sapiens) (protein)
chain: MLNGAGLDKALKMSLPRRSRIRSSVGPVRSSLGYKKAEDEMSRATSVGDQLEAPARTIYLNQPHLNKFRDNQISTAKYSVLTFLPRFLYEQIRRAANAFFLFIALLQQIPDVSPTGRYTTLVPLIIILTIAGIKEIVEDFKRHKADNAVNKKKTIVLRNGMWHTIMWKEVAVGDIVKVVNGQYLPADVVLLSSSEPQAMCYVETANLDGETNLKIRQGLSHTADMQTREVLMKLSGTIECEGPNRHLYDFTGNLNLDGKSLVALGPDQILLRGTQLRNTQWVFGIVVYTGHDTKLMQNSTKAPLKRSNVEKVTNVQILVLFGILLVMALVSSAGALYWNRSHGEKNWYIKKMDTTSDNFGYNLLTFIILYNNLIPISLLVTLEVVKYTQALFINWDTDMYYIGNDTPAMARTSNLNEELGQVKYLFSDKTGTLTCNIMNFKKCSIAGVTYGHFPELAREPSSDDFCRMPPPCSDSCDFDDPRLLKNIEDRHPTAPCIQEFLTLLAVCHTVVPEKDGDNIIYQASSPDEAALVKGAKKLGFVFTARTPFSVIIEAMGQEQTFGILNVLEFSSDRKRMSVIVRTPSGRLRLYCKGADNVIFERLSKDSKYMEETLCHLEYFATEGLRTLCVAYADLSENEYEEWLKVYQEASTILKDRAQRLEECYEIIEKNLLLLGATAIEDRLQAGVPETIATLLKAEIKIWVLTGDKQETAINIGYSCRLVSQNMALILLKEDSLDATRAAITQHCTDLGNLLGKENDVALIIDGHTLKYALSFEVRRSFLDLALSCKAVICCRVSPLQKSEIVDVVKKRVKAITLAIGDGANDVGMIQTAHVGVGISGNEGMQATNNSDYAIAQFSYLEKLLLVHGAWSYNRVTKCILYCFYKNVVLYIIELWFAFVNGFSGQILFERWCIGLYNVIFTALPPFTLGIFERSCTQESMLRFPQLYKITQNGEGFNTKVFWGHCINALVHSLILFWFPMKALEHDTVLTSGHATDYLFVGNIVYTYVVVTVCLKAGLETTAWTKFSHLAVWGSMLTWLVFFGIYSTIWPTIPIAPDMRGQATMVLSSAHFWLGLFLVPTACLIEDVAWRAAKHTCKKTLLEEVQELETKSRVLGKAVLRDSNGKRLNERDRLIKRLGRKTPPTLFRGSSLQQGVPHGYAFSQEEHGAVSQEEVIRAYDTTKKKSRKK
notes: heterodimer; with Cell cycle control protein 50A
B2: ATP8A2-CDC50A complex (Homo sapiens; E459D) (protein)
chain: MLNGAGLDKALKMSLPRRSRIRSSVGPVRSSLGYKKAEDEMSRATSVGDQLEAPARTIYLNQPHLNKFRDNQISTAKYSVLTFLPRFLYEQIRRAANAFFLFIALLQQIPDVSPTGRYTTLVPLIIILTIAGIKEIVEDFKRHKADNAVNKKKTIVLRNGMWHTIMWKEVAVGDIVKVVNGQYLPADVVLLSSSEPQAMCYVETANLDGETNLKIRQGLSHTADMQTREVLMKLSGTIECEGPNRHLYDFTGNLNLDGKSLVALGPDQILLRGTQLRNTQWVFGIVVYTGHDTKLMQNSTKAPLKRSNVEKVTNVQILVLFGILLVMALVSSAGALYWNRSHGEKNWYIKKMDTTSDNFGYNLLTFIILYNNLIPISLLVTLEVVKYTQALFINWDTDMYYIGNDTPAMARTSNLNEELGQVKYLFSDKTGTLTCNIMNFKKCSIAGVTYGHFPELARDPSSDDFCRMPPPCSDSCDFDDPRLLKNIEDRHPTAPCIQEFLTLLAVCHTVVPEKDGDNIIYQASSPDEAALVKGAKKLGFVFTARTPFSVIIEAMGQEQTFGILNVLEFSSDRKRMSVIVRTPSGRLRLYCKGADNVIFERLSKDSKYMEETLCHLEYFATEGLRTLCVAYADLSENEYEEWLKVYQEASTILKDRAQRLEECYEIIEKNLLLLGATAIEDRLQAGVPETIATLLKAEIKIWVLTGDKQETAINIGYSCRLVSQNMALILLKEDSLDATRAAITQHCTDLGNLLGKENDVALIIDGHTLKYALSFEVRRSFLDLALSCKAVICCRVSPLQKSEIVDVVKKRVKAITLAIGDGANDVGMIQTAHVGVGISGNEGMQATNNSDYAIAQFSYLEKLLLVHGAWSYNRVTKCILYCFYKNVVLYIIELWFAFVNGFSGQILFERWCIGLYNVIFTALPPFTLGIFERSCTQESMLRFPQLYKITQNGEGFNTKVFWGHCINALVHSLILFWFPMKALEHDTVLTSGHATDYLFVGNIVYTYVVVTVCLKAGLETTAWTKFSHLAVWGSMLTWLVFFGIYSTIWPTIPIAPDMRGQATMVLSSAHFWLGLFLVPTACLIEDVAWRAAKHTCKKTLLEEVQELETKSRVLGKAVLRDSNGKRLNERDRLIKRLGRKTPPTLFRGSSLQQGVPHGYAFSQEEHGAVSQEEVIRAYDTTKKKSRKK
notes: as for B1
B3: ATP8A2-CDC50A complex (Homo sapiens; E459Q) (protein)
chain: MLNGAGLDKALKMSLPRRSRIRSSVGPVRSSLGYKKAEDEMSRATSVGDQLEAPARTIYLNQPHLNKFRDNQISTAKYSVLTFLPRFLYEQIRRAANAFFLFIALLQQIPDVSPTGRYTTLVPLIIILTIAGIKEIVEDFKRHKADNAVNKKKTIVLRNGMWHTIMWKEVAVGDIVKVVNGQYLPADVVLLSSSEPQAMCYVETANLDGETNLKIRQGLSHTADMQTREVLMKLSGTIECEGPNRHLYDFTGNLNLDGKSLVALGPDQILLRGTQLRNTQWVFGIVVYTGHDTKLMQNSTKAPLKRSNVEKVTNVQILVLFGILLVMALVSSAGALYWNRSHGEKNWYIKKMDTTSDNFGYNLLTFIILYNNLIPISLLVTLEVVKYTQALFINWDTDMYYIGNDTPAMARTSNLNEELGQVKYLFSDKTGTLTCNIMNFKKCSIAGVTYGHFPELARQPSSDDFCRMPPPCSDSCDFDDPRLLKNIEDRHPTAPCIQEFLTLLAVCHTVVPEKDGDNIIYQASSPDEAALVKGAKKLGFVFTARTPFSVIIEAMGQEQTFGILNVLEFSSDRKRMSVIVRTPSGRLRLYCKGADNVIFERLSKDSKYMEETLCHLEYFATEGLRTLCVAYADLSENEYEEWLKVYQEASTILKDRAQRLEECYEIIEKNLLLLGATAIEDRLQAGVPETIATLLKAEIKIWVLTGDKQETAINIGYSCRLVSQNMALILLKEDSLDATRAAITQHCTDLGNLLGKENDVALIIDGHTLKYALSFEVRRSFLDLALSCKAVICCRVSPLQKSEIVDVVKKRVKAITLAIGDGANDVGMIQTAHVGVGISGNEGMQATNNSDYAIAQFSYLEKLLLVHGAWSYNRVTKCILYCFYKNVVLYIIELWFAFVNGFSGQILFERWCIGLYNVIFTALPPFTLGIFERSCTQESMLRFPQLYKITQNGEGFNTKVFWGHCINALVHSLILFWFPMKALEHDTVLTSGHATDYLFVGNIVYTYVVVTVCLKAGLETTAWTKFSHLAVWGSMLTWLVFFGIYSTIWPTIPIAPDMRGQATMVLSSAHFWLGLFLVPTACLIEDVAWRAAKHTCKKTLLEEVQELETKSRVLGKAVLRDSNGKRLNERDRLIKRLGRKTPPTLFRGSSLQQGVPHGYAFSQEEHGAVSQEEVIRAYDTTKKKSRKK
notes: as for B1

Substrate: CCCCCCCC/C=C\CCCCCCCC(=O)OC[C@H](COP(=O)(O)OC[C@H](N)C(=O)O)OC(=O)CCCCCCC/C=C\CCCCCCCC
Assay: colorimetric phosphate-release ATPase assay, Michaelis-Menten fit
Type: biochemical, Homo sapiens
Conditions: PS activation constant (not association constant), 5 mM ATP, DOPC:DOPS mixtures at 2.5 mg/ml total lipid, 10 mM CHAPS, 12.5 mM MgCl2, pH 7.5, 37°C

B1 and B2 are within error of each other in K0.5: 14.3 ± 4.3 µM for the first, 19.3 ± 4.2 µM for the second.

In the case of B3, the K0.5 is reported as 8.4 ± 3.1 µM.
